# According to patent publication US20110311553A1 (Boehringer Ingelheim, published 2011):
# Target: Labeled peptide representing the N-terminus of PAR-2 (FRET peptide)
# Experiment: cell-based or functional assay
row,FRET Peptide Cleavage IC50,Binder
1,< 30 nM,"Ab4994 IgG4_Pro (antibody, V domains shown) VH: QVQLVESGGGLVQPGGSLRLSCAASGFTFSSYAMNWVRQAPGKGLEWVSAISYSGHLTGYADSVKGRFTISRDNSKNTLYLQMNSLRAEDTAVYYCARIQNDPMDVWGQGTLVTVSS VL: DIELTQPPSVSVAPGQTARISCSGDNLGKKYVQWYQQKPGQAPVLVIYDDSNRPSGIPERFSGSNSGNTATLTISGTQAEDEADYYCSSWDVGSDGWVFGGGTKLTVLG"
2,< 30 nM,"Ab4999 IgG4_Pro (antibody, V domains shown) VH: QVQLVESGGGLVQPGGSLRLSCAASGFTFSSYAMNWVRQAPGKGLEWVSTISYSSSATSYADSVKGRFTISRDNSKNTLYLQMNSLRAEDTAVYYCARIQNDPMDVWGQGTLVTVSS VL: DIELTQPPSVSVAPGQTARISCSGDNLGKKYVQWYQQKPGQAPVLVIYDDSNRPSGIPERFSGSNSGNTATLTISGTQAEDEADYYCQTWDYSSIRDETNVFGGGTKLTVLG"
3,< 30 nM,"Ab5007 IgG4_Pro (antibody, V domains shown) VH: QVQLVESGGGLVQPGGSLRLSCAASGFTFSSYAMNWVRQAPGKGLEWVSAISFSGHLTGYADSVKGRFTISRDNSKNTLYLQMNSLRAEDTAVYYCARIQNDPMDVWGQGTLVTVSS VL: DIELTQPPSVSVAPGQTARISCSGDNLGKKYVQWYQQKPGQAPVLVIYDDSNRPSGIPERFSGSNSGNTATLTISGTQAEDEADYYCSSWDVGSDGWVFGGGTKLTVLG"
4,< 30 nM,"Ab5003 IgG4_Pro (antibody, V domains shown) VH: QVQLVESGGGLVQPGGSLRLSCAASGFTFSSYAMNWVRQAPGKGLEWVSAISYKGHLTGYADSVKGRFTISRDNSKNTLYLQMNSLRAEDTAVYYCARIQNDPMDVWGQGTLVTVSS VL: DIELTQPPSVSVAPGQTARISCSGDNLGKKYVQWYQQKPGQAPVLVIYDDSNRPSGIPERFSGSNSGNTATLTISGTQAEDEADYYCSSWDVGSDGWVFGGGTKLTVLG"
5,< 30 nM,"Ab5151 IgG4_Pro (light chain of Ab4999 combined with heavy chain of Ab5007) (antibody, V domains shown) VH: QVQLVESGGGLVQPGGSLRLSCAASGFTFSSYAMNWVRQAPGKGLEWVSAISFSGHLTGYADSVKGRFTISRDNSKNTLYLQMNSLRAEDTAVYYCARIQNDPMDVWGQGTLVTVSS VL: DIELTQPPSVSVAPGQTARISCSGDNLGKKYVQWYQQKPGQAPVLVIYDDSNRPSGIPERFSGSNSGNTATLTISGTQAEDEADYYCQTWDYSSIRDETNVFGGGTKLTVLG"
6,< 30 nM,"Ab4997 IgG4_Pro (antibody, V domains shown) VH: QVQLVESGGGLVQPGGSLRLSCAASGFTFSSYAMNWVRQAPGKGLEWVSAISYNGKLKGYADSVKGRFTISRDNSKNTLYLQMNSLRAEDTAVYYCARIQNDPMDVWGQGTLVTVSS VL: DIELTQPPSVSVAPGQTARISCSGDNLGKKYVQWYQQKPGQAPVLVIYDDSNRPSGIPERFSGSNSGNTATLTISGTQAEDEADYYCSSWDVGSDGWVFGGGTKLTVLG"
7,< 30 nM,"Ab5149 IgG4_Pro (light chain of Ab4999 combined with heavy chain of Ab4997) (antibody, V domains shown) VH: QVQLVESGGGLVQPGGSLRLSCAASGFTFSSYAMNWVRQAPGKGLEWVSAISYNGKLKGYADSVKGRFTISRDNSKNTLYLQMNSLRAEDTAVYYCARIQNDPMDVWGQGTLVTVSS VL: DIELTQPPSVSVAPGQTARISCSGDNLGKKYVQWYQQKPGQAPVLVIYDDSNRPSGIPERFSGSNSGNTATLTISGTQAEDEADYYCQTWDYSSIRDETNVFGGGTKLTVLG"
8,< 30 nM,"Ab5150 IgG4_Pro (light chain of Ab4999 combined with heavy chain of Ab5003) (antibody, V domains shown) VH: QVQLVESGGGLVQPGGSLRLSCAASGFTFSSYAMNWVRQAPGKGLEWVSAISYKGHLTGYADSVKGRFTISRDNSKNTLYLQMNSLRAEDTAVYYCARIQNDPMDVWGQGTLVTVSS VL: DIELTQPPSVSVAPGQTARISCSGDNLGKKYVQWYQQKPGQAPVLVIYDDSNRPSGIPERFSGSNSGNTATLTISGTQAEDEADYYCQTWDYSSIRDETNVFGGGTKLTVLG"
9,< 30 nM,"Ab5005 IgG4_Pro (antibody, V domains shown) VH: QVQLVESGGGLVQPGGSLRLSCAASGFTFSSYAMNWVRQAPGKGLEWVSTISYSSSATSYADSVKGRFTISRDNSKNTLYLQMNSLRAEDTAVYYCARIQNDPMDVWGQGTLVTVSS VL: DIELTQPPSVSVAPGQTARISCSGDNLGKKYVQWYQQKPGQAPVLVIYDDSNRPSGIPERFSGSNSGNTATLTISGTQAEDEADYYCQSWALVGSSESNVFGGGTKLTVLG"
10,< 30 nM,"Ab4996 IgG4_Pro (antibody, V domains shown) VH: QVQLVESGGGLVQPGGSLRLSCAASGFTFSNHAMHWVRQAPGKGLEWVSAISHPGKFTYYADSVKGRFTISRDNSKNTLYLQMNSLRAEDTAVYYCARHGDGMDYFDFWGQGTLVTVSS VL: DIELTQPPSVSVAPGQTARISCSGDNIGTKYVYWYQQKPGQAPVLVIYDDNNRPSGIPERFSGSNSGNTATLTISGTQAEDEADYYCQSYDSQTMVFGGGTKLTVLG"
